Data reported in paper doi:10.1101/2024.12.09.627633 (bioRxiv, 2024).

Target: the molecule itself
Assay: thioflavin T fluorescence of in vitro polymerisation; CAF domains 30 uM polymerised at 37 C with shaking at 200 rpm; ThT added at each time point; excitation 444 nm, emission 480 nm

B1: CAF domain (residues 148-223) of G175S human PMEL (domain or fragment, UniProt P40967 148-223, looked up)
chain: SFVYVWKTWGQYWQVLGGPVSGLSIGTSRAMLGTHTMEVTVYHRRGSRSYVPLAHSSSAFTITDQVPFSVSVSQLR
notes: PMEL, human, CAF (core amyloid-forming) domain, residues 148-223, with the G175S mutation linked to pigment dispersion syndrome; Polymerised in vitro in 150 mM sodium acetate pH 4.4 into two-protofilament fibrils; also called G175S CAF domain; G175S mutant; source: E. coli BL21 (DE3), pET24a, inclusion bodies, purified (Ni-NTA in 8M urea)
- fold final yield of polymerized amyloids against the wild type: ~4 fold
- fold rate of polymerisation against the wild type: ~4 fold
